Laboratory results reported in publication PMC9352680, “A comprehensive thermodynamic model for RNA binding by the Saccharomyces cerevisiae Pumilio protein PUF4”.
Numbering of substitutions follows the chain as printed. In names and notes the source's numbering stands.

T1: PUF4 RNA-binding domain (Saccharomyces cerevisiae, UniProt P25339 537-888)
T1 sequence: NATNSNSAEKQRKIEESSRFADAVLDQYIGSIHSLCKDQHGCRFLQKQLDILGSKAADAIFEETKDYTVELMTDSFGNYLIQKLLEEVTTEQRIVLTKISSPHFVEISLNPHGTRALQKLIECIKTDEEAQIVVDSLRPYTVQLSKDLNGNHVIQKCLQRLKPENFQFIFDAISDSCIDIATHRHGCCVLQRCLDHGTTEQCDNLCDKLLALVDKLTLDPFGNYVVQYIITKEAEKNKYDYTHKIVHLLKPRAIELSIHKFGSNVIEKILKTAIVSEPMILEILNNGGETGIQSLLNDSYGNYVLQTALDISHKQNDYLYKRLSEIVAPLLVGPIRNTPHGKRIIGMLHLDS

B1: Ic_S2_P5E.1_K5.1_C5.1_H5.1_A5.1_[T5C]_[T6G]_[A7T]_F5.1_[T8G]_[T9C]_[A10C]_T5.1 (ssRNA)
RNA: UUUGAUUAAUAUGAUAUCGUUCUUUCUUGUACGUGCCUUCUUUCUCGAUAUCAUAUUAAUCUUU
B2: Ic_S2_P5E.1_K5.1_C5.1_H5.1_A5.1_[T6C]_[A7G]_F5.1_[T8C]_[T9C]_[A10G]_T5.1 (ssRNA)
RNA: B1 RNA with C32U, G33C, U34G, G35C, C37G
B3: Ic_S2_P5E.1_K5.1_C5.1_H5.1_A5.1_[T5G]_[T6C]_F5.1_[T8A]_[T9A]_[A10C]_T5.1 (ssRNA)
RNA: B1 RNA with C32G, G33C, U34A, G35A, C36A
B4: Ic_S2_P5E.1_K5.1_C5.1_H5.1_A5.1_[T5A]_[T6C]_[A7T]_F5.1_[T8A]_[T9G]_[A10T]_T5.1 (ssRNA)
RNA: B1 RNA with C32A, G33C, G35A, C36G, C37U
B5: Ic_S2_P5E.1_K5.1_C5.1_H5.1_A5.1_[T5C]_F5.1_[T8A]_[T9A]_[A10T]_T5.1 (ssRNA)
RNA: B1 RNA with G33U, U34A, G35A, C36A, C37U
B6: Ic_S2_P5E.1_K5.1_C5.1_H5.1_A5.1_[T5C]_[A7T]_F5.1_[T8C]_[T9A]_[A10T]_T5.1 (ssRNA)
RNA: B1 RNA with G33U, G35C, C36A, C37U
B7: Ic_S2_P5E.1_K5.1_C5.1_H5.1_A5.1_[T5C]_[T6G]_[A7T]_F5.1_[T9G]_[A10T]_T5.1 (ssRNA)
RNA: B1 RNA with G35U, C36G, C37U
B8: Ic_S2_P5E.1_K5.1_C5.1_H5.1_A5.1_[T5C]_[T6C]_[A7T]_F5.1_[T8C]_[T9C]_T5.1 (ssRNA)
RNA: B1 RNA with G33C, G35C, C37A
B9: Ic_S2_P5E.1_K5.1_C5.1_H5.1_A5.1_[T5A]_[T6C]_[A7C]_F5.1_[T9A]_[A10G]_T5.1 (ssRNA)
RNA: B1 RNA with C32A, G33C, U34C, G35U, C36A, C37G
B10: Ic_S2_P5E.1_K5.1_C5.1_H5.1_A5.1_[T5C]_[T6C]_[A7T]_F5.1_[T8C]_[T9G]_[A10C]_T5.1 (ssRNA)
RNA: B1 RNA with G33C, G35C, C36G
B11: Ic_S2_P5E.1_K5.1_C5.1_H5.1_A5.1_[A7T]_F5.1_[T9C]_[A10G]_T5.1 (ssRNA)
RNA: B1 RNA with C32U, G33U, G35U, C37G
B12: Ic_S2_P5E.1_K5.1_C5.1_H5.1_A5.1_[T5A]_[T6A]_F5.1_[A10T]_T5.1 (ssRNA)
RNA: B1 RNA with C32A, G33A, U34A, G35U, C36U, C37U
B13: Ic_S2_P5E.1_K5.1_C5.1_H5.1_A5.1_[T5G]_[A7C]_F5.1_[T8G]_[A10G]_T5.1 (ssRNA)
RNA: B1 RNA with C32G, G33U, U34C, C36U, C37G
B14: Ic_S2_P5E.1_K5.1_C5.1_H5.1_A5.1_[T5A]_[T6C]_[A7C]_F5.1_[T9A]_[A10T]_T5.1 (ssRNA)
RNA: B1 RNA with C32A, G33C, U34C, G35U, C36A, C37U
B15: Ic_S2_P5E.1_K5.1_C5.1_H5.1_A5.1_[A7G]_F5.1_[T8C]_[T9C]_T5.1 (ssRNA)
RNA: B1 RNA with C32U, G33U, U34G, G35C, C37A
B16: Ic_S2_P5E.1_K5.1_C5.1_H5.1_A5.1_[T5A]_[T6A]_[A7C]_F5.1_[T9G]_[A10G]_T5.1 (ssRNA)
RNA: B1 RNA with C32A, G33A, U34C, G35U, C36G, C37G
B17: Ic_S2_P5E.1_K5.1_C5.1_H5.1_A5.1_[T6A]_[A7C]_F5.1_[T8G]_[T9G]_[A10T]_T5.1 (ssRNA)
RNA: B1 RNA with C32U, G33A, U34C, C36G, C37U
B18: Ic_S2_P5E.1_K5.1_C5.1_H5.1_A5.1_[T5C]_[T6G]_[A7T]_F5.1_[T8G]_[T9G]_[A10T]_T5.1 (ssRNA)
RNA: B1 RNA with C36G, C37U
B19: Ic_S2_P5E.1_K5.1_C5.1_H5.1_A5.1_[T5C]_F5.1_[T9A]_[A10T]_T5.1 (ssRNA)
RNA: B1 RNA with G33U, U34A, G35U, C36A, C37U
B20: Ic_S2_P5E.1_K5.1_C5.1_H5.1_A5.1_[T5A]_F5.1_[T9A]_[A10T]_T5.1 (ssRNA)
RNA: B1 RNA with C32A, G33U, U34A, G35U, C36A, C37U
B21: Ic_S2_P5E.1_K5.1_C5.1_H5.1_A5.1_[T5C]_[T6A]_[A7C]_F5.1_[T8A]_[T9A]_T5.1 (ssRNA)
RNA: B1 RNA with G33A, U34C, G35A, C36A, C37A
B22: Ic_S2_P5E.1_K5.1_C5.1_H5.1_A5.1_[T6A]_[A7C]_F5.1_[T8C]_[T9A]_[A10T]_T5.1 (ssRNA)
RNA: B1 RNA with C32U, G33A, U34C, G35C, C36A, C37U
B23: Ic_S2_P5E.1_K5.1_C5.1_H5.1_A5.1_[T5A]_[A7T]_F5.1_[T9A]_[A10G]_T5.1 (ssRNA)
RNA: B1 RNA with C32A, G33U, G35U, C36A, C37G
B24: Ic_S2_P5E.1_K5.1_C5.1_H5.1_A5.1_[T5G]_[A7C]_F5.1_[T8A]_[T9C]_[A10T]_T5.1 (ssRNA)
RNA: B1 RNA with C32G, G33U, U34C, G35A, C37U
B25: Ic_S2_P5E.1_K5.1_C5.1_H5.1_A5.1_[T5A]_[T6A]_[A7C]_F5.1_[T8G]_[T9C]_[A10C]_T5.1 (ssRNA)
RNA: B1 RNA with C32A, G33A, U34C
B26: Ic_S2_P5E.1_K5.1_C5.1_H5.1_A5.1_[T5A]_[T6C]_[A7G]_F5.1_[T9A]_[A10G]_T5.1 (ssRNA)
RNA: B1 RNA with C32A, G33C, U34G, G35U, C36A, C37G
B27: Ic_S2_P5E.1_K5.1_C5.1_H5.1_A5.1_[T5G]_[A7T]_F5.1_[T8C]_[T9C]_[A10T]_T5.1 (ssRNA)
RNA: B1 RNA with C32G, G33U, G35C, C37U
B28: Ic_S2_P5E.1_K5.1_C5.1_H5.1_A5.1_[T5G]_[T6C]_[A7C]_F5.1_[T8C]_[A10T]_T5.1 (ssRNA)
RNA: B1 RNA with C32G, G33C, U34C, G35C, C36U, C37U

The binders below were run against T1, PUF4 RNA-binding domain (assay: Mg; RNA-MaP; 20 mM Na-HEPES pH 7.4, 30 mM KOAc, 0.75 mM MgCl2, 0.1% Tween-20, 5% glycerol, 0.1 mg/mL BSA, 2 mM DTT; 25 C; 0.0125-409.6 nM protein). Conditions: tags: N-His6-TEV cleaved; C-SNAP kept, Cy3B-labelled; label: tethered on chip by stalled RNA polymerase.

Compared with B1, B2 is 7.5-fold higher in Kd: 205 nM for the first, 1530 nM for the second. The first binds more tightly here.

B3 and B4 are within 1.5-fold of each other in Kd: 653 nM for the first, 737 nM for the second.

Going from B5 to B6, the Kd rises from 25.3 nM to 80.5 nM (3.2-fold).

Compared with B7, B8 is 3.5-fold higher in Kd: 31.8 nM for the first, 110 nM for the second.

First: B9
Second: B10
The Kd of the first is 3.5-fold lower: 28.5 nM for the first, 101 nM for the second.

B11 and B12 are within 1.5-fold of each other in Kd: 42.9 nM for the first, 53.3 nM for the second.

Compared with B13, B14 is 100-fold lower in Kd: 492 nM for the first, 4.74 nM for the second.

Going from B15 to B16, the Kd falls from 497 nM to 26 nM (19-fold).

Going from B17 to B18, the Kd falls from 571 nM to 211 nM (2.7-fold). The second binds more tightly here.

Compared with B19, B20 is 3.2-fold higher in Kd: 0.408 nM for the first, 1.32 nM for the second.

B21 and B22 are within 1.5-fold of each other in Kd: 10.8 nM for the first, 13.7 nM for the second.

Going from B23 to B24, the Kd rises from 5.21 nM to 722 nM (140-fold). The first binds more tightly here.

Going from B25 to B26, the Kd falls from 611 nM to 69.1 nM (8.8-fold). The second binds more tightly here.

B27 and B28 are within 1.5-fold of each other in Kd: 175 nM for the first, 254 nM for the second.

Work on UCUCUUUGUUUAUCAUCUCUU (ssRNA) [Ib_S1_P4E.1_K4.1_C4.1_H4.1_[A4T]_A4.1_F4.1_[T8C]_T4.1] yielded a Kd of 917 nM.
